Measured values published in the supplement of paper PMC10724198.
± gives the standard deviation of the averaged measurements.

What was measured:
Saccharomyces cerevisiae [1] = assay: protein stability index of tFT-peptide fusion (C-terminal peptide) (PSI (0-1 scale)); higher = more stable (slower turnover); details: genetic background: wild type; temperature: 30 C
Saccharomyces cerevisiae [2] = assay: as above
Protocol: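 MPS profiling in S. cerevisiae of the tFT-X12 degron library: putative degron peptides plus stable controls, 12 aa, fused to the C-terminus of a sfGFP-mCherry timer. Cells are FACS-sorted into 8 mCherry/sfGFP bins and deep-sequenced. PSI runs from 0 (unstable) to 1 (stable). Backgrounds are wild type, das1Δ and doa10Δ at 30 °C, and wild type, das1Δ, cdc34-1 and cdc53-1 at 37 °C; 2-3 technical replicates each.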

[3] = genetic background: cdc34-1, temperature: 37 C
[4] = genetic background: cdc53-1, temperature: 37 C
[5] = genetic background: das1 deletion, temperature: 30 C
[6] = genetic background: das1 deletion, temperature: 37 C
[7] = genetic background: doa10 deletion, temperature: 30 C
[8] = genetic background: wild type, temperature: 30 C
[9] = genetic background: wild type, temperature: 37 C
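Further: PSI is a weighted mean of sequencing reads over stability bins, variants kept only with over 10 reads, mCherry proximal and sfGFP distal, peptide attached via GGGS linker.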

| Sequence | protein stability index (Saccharomyces cerevisiae [1]) | protein stability index (Saccharomyces cerevisiae [2]; [3]) | protein stability index (Saccharomyces cerevisiae [2]; [4]) | protein stability index (Saccharomyces cerevisiae [2]; [5]) | protein stability index (Saccharomyces cerevisiae [2]; [6]) | protein stability index (Saccharomyces cerevisiae [2]; [7]) | protein stability index (Saccharomyces cerevisiae [2]; [8]) | protein stability index (Saccharomyces cerevisiae [2]; [9]) |
| --- | --- | --- | --- | --- | --- | --- | --- | --- |
| FVVQSLNQMRLN | 0.441 ± 0.034 | 0.693 ± 0.025 | 0.727 ± 0.02 | 0.656 ± 0.035 | 0.718 ± 0.019 | 0.354 ± 0.0096 | 0.379 ± 0.025 | 0.62 ± 0.025 |
| SLFPHIFFFFFA | 0.49 ± 0.013 | 0.43487 ± 0.00035 | 0.467 ± 0.015 | 0.386 ± 0.036 | 0.428 ± 0.0029 | 0.343 ± 0.015 | 0.295 ± 0.032 | 0.384 ± 0.0099 |
| LLVFSLLYPCLV | 0.345 ± 0.021 | 0.324 ± 0.0049 | 0.362 ± 0.017 | 0.289 ± 0.031 | 0.419 ± 0.013 | 0.241 ± 0.0036 | 0.272 ± 0.02 | 0.3913 ± 0.0032 |
| GLRFFVSSLLCR | 0.508 ± 0.058 | 0.502 ± 0.039 | 0.54807 ± 0.0003 | 0.389 ± 0.036 | 0.5651 ± 0.0036 | 0.377 ± 0.0095 | 0.388 ± 0.02 | 0.555 ± 0.021 |
| WFLMVILYTVYG | 0.299 ± 0.0077 | 0.157 ± 0.0068 | 0.2 ± 0.0073 | 0.182 ± 0.035 | 0.304 ± 0.0055 | 0.149 ± 0.033 | 0.187 ± 0.032 | 0.278 ± 0.013 |
| LGCFGSSFVFCC | 0.23 ± 0.016 | 0.565 ± 0.015 | 0.668 ± 0.02 | 0.553 ± 0.029 | 0.685 ± 0.015 | 0.138 ± 0.0034 | 0.155 ± 0.017 | 0.355 ± 0.0038 |
| VSIVLHSVPCGG | 0.453 ± 0.035 | 0.514 ± 0.029 | 0.5211 ± 0.0032 | 0.389 ± 0.019 | 0.54459 ± 0.0005 | 0.361 ± 0.011 | 0.392 ± 0.024 | 0.519 ± 0.011 |
| ASVCLNVIYQLV | 0.268 ± 0.036 | 0.515 ± 0.024 | 0.451 ± 0.0053 | 0.288 ± 0.027 | 0.471 ± 0.013 | 0.1572 ± 0.0011 | 0.164 ± 0.018 | 0.222 ± 0.024 |
| VARLGGRIGWEG | 0.548 ± 0.17 | 0.694 ± 0.022 | 0.736 ± 0.019 | 0.634 ± 0.014 | 0.763 ± 0.015 | 0.652 ± 0.026 | 0.646 ± 0.013 | 0.7208 ± 0.0018 |
| TLFSFLLVFVFG | 0.411 ± 0.017 | 0.209 ± 0.0076 | 0.315 ± 0.0035 | 0.228 ± 0.035 | 0.386 ± 0.0047 | 0.185 ± 0.019 | 0.206 ± 0.031 | 0.35 ± 0.0049 |
| KLLISLTWFCVL | 0.284 ± 0.092 | 0.395 ± 0.036 | 0.476 ± 0.014 | 0.373 ± 0.029 | 0.527 ± 0.019 | 0.165 ± 0.0032 | 0.192 ± 0.028 | 0.3344 ± 0.00067 |
| VVCLLGIFYGFC | 0.446 ± 0.07 | 0.382 ± 0.023 | 0.497 ± 0.045 | 0.313 ± 0.031 | 0.5138 ± 0.00014 | 0.293 ± 0.021 | 0.307 ± 0.031 | 0.51 ± 0.014 |
| LRFFYFLHFCIL | 0.277 ± 0.03 | 0.36 ± 0.033 | 0.366 ± 0.024 | 0.43 ± 0.018 | 0.504 ± 0.0076 | 0.256 ± 0.0083 | 0.223 ± 0.0052 | 0.286 ± 0.021 |
| FLSFARSSCLWF | 0.748 ± 0.016 | 0.678 ± 0.028 | 0.7423 ± 0.0011 | 0.657 ± 0.015 | 0.739 ± 0.014 | 0.676 ± 0.03 | 0.666 ± 0.0085 | 0.7115 ± 0.00098 |
| VFGFSLLTLLVL | 0.439 ± 0.022 | 0.441 ± 0.0078 | 0.511 ± 0.025 | 0.386 ± 0.0081 | 0.5062 ± 0.0021 | 0.324 ± 0.011 | 0.347 ± 0.024 | 0.467 ± 0.019 |
| FCTVYFVCVWEM | 0.334 ± 0.055 | 0.1957 ± 0.0014 | 0.273 ± 0.022 | 0.209 ± 0.043 | 0.393 ± 0.033 | 0.177 ± 0.03 | 0.212 ± 0.015 | 0.362 ± 0.014 |
| NLSYFFFSVLFF | 0.499 ± 0.032 | 0.552 ± 0.069 | 0.562 ± 0.018 | 0.506 ± 0.033 | 0.693 ± 0.067 | 0.62 ± 0.022 | 0.545 ± 0.068 | 0.612 ± 0.038 |
| GAICCFCCYLVF | 0.514 ± 0.043 | 0.554 ± 0.0089 | 0.625 ± 0.026 | 0.505 ± 0.028 | 0.626 ± 0.035 | 0.463 ± 0.025 | 0.47 ± 0.014 | 0.597 ± 0.031 |
| CMILVACFYLPS | 0.321 ± 0.004 | 0.285 ± 0.033 | 0.441 ± 0.061 | 0.29 ± 0.024 | 0.455 ± 0.017 | 0.248 ± 0.0063 | 0.294 ± 0.017 | 0.428 ± 0.01 |
| SRRCGLFVFILF | 0.392 ± 0.03 | 0.387 ± 0.042 | 0.378 ± 0.028 | 0.324 ± 0.041 | 0.49 ± 0.021 | 0.365 ± 0.008 | 0.277 ± 0.03 | 0.471 ± 0.006 |

| Sequence | protein stability index (Saccharomyces cerevisiae [1]) | protein stability index (Saccharomyces cerevisiae [2]; [3]) | protein stability index (Saccharomyces cerevisiae [2]; [4]) | protein stability index (Saccharomyces cerevisiae [2]; [5]) | protein stability index (Saccharomyces cerevisiae [2]; [6]) | protein stability index (Saccharomyces cerevisiae [2]; [7]) | protein stability index (Saccharomyces cerevisiae [2]; [8]) | protein stability index (Saccharomyces cerevisiae [2]; [9]) |
| --- | --- | --- | --- | --- | --- | --- | --- | --- |
| FRTTGQAPPSKP | 0.568 ± 0.2 | 0.674 ± 0.064 | 0.743 ± 0.013 | 0.633 ± 0.013 | 0.727 ± 0.022 | 0.64 ± 0.038 | 0.6444 ± 0.0056 | 0.71966 ± 0.0003 |
| SYMWLVEVLLFI | 0.264 ± 0.038 | 0.229 ± 0.0074 | 0.306 ± 0.0063 | 0.196 ± 0.028 | 0.386 ± 0.019 | 0.173 ± 0.012 | 0.189 ± 0.012 | 0.33 ± 0.0059 |
| VFVLFLRAVACR | 0.0236 ± 0.013 | 0.0227 ± 0.0013 | 0.0336 ± 0.0004 | 0.0288 ± 0.0046 | 0.0423 ± 0.0022 | 0.0174 ± 0.0024 | 0.0193 ± 0.0039 | 0.0342 ± 0.015 |
| RQALYFLMICGL | 0.421 ± 0.0045 | 0.508 ± 0.024 | 0.564 ± 0.023 | 0.407 ± 0.039 | 0.545 ± 0.0071 | 0.29391 ± 6e-05 | 0.318 ± 0.019 | 0.459 ± 0.027 |
| PDPIFGEWVYMV | 0.327 ± 0.0015 | 0.57943 ± 4.3e-05 | 0.72148 ± 0.00041 | 0.644 ± 0.0072 | 0.7555 ± 0.0066 | 0.249 ± 0.00039 | 0.26 ± 0.02 | 0.384 ± 0.0032 |
| WSWVFVVLRFGR | 0.527 ± 0.048 | 0.485 ± 0.035 | 0.5367 ± 0.0019 | 0.405 ± 0.027 | 0.574 ± 0.017 | 0.412 ± 0.025 | 0.394 ± 0.024 | 0.562 ± 0.014 |
| YMPKHKIQKLMQ | 0.491 ± 0.067 | 0.701 ± 0.02 | 0.728 ± 0.032 | 0.639 ± 0.023 | 0.7635 ± 0.0046 | 0.425 ± 0.012 | 0.46 ± 0.023 | 0.607 ± 0.018 |
| RVHFLIVFLCRF | 0.399 ± 0.051 | 0.441 ± 0.012 | 0.4927 ± 0.0037 | 0.369 ± 0.011 | 0.526 ± 0.012 | 0.398 ± 0.024 | 0.361 ± 0.014 | 0.472 ± 0.021 |
| GLLGRCPVVVFG | 0.378 ± 0.061 | 0.385 ± 0.041 | 0.397 ± 0.013 | 0.273 ± 0.04 | 0.49774 ± 0.00049 | 0.216 ± 0.013 | 0.285 ± 0.026 | 0.463 ± 0.0047 |
| HRDVISVVRNMS | 0.43 ± 0.027 | 0.625 ± 0.016 | 0.70886 ± 0.00045 | 0.659 ± 0.058 | 0.715 ± 0.019 | 0.246 ± 0.022 | 0.333 ± 0.022 | 0.576 ± 0.012 |
| IFLLFPFSWRIF | 0.446 ± 0.034 | 0.596 ± 0.042 | 0.6301 ± 0.0061 | 0.56 ± 0.039 | 0.694 ± 0.011 | 0.364 ± 0.027 | 0.376 ± 0.033 | 0.539 ± 0.036 |
| VNILFCLFFLLV | 0.412 ± 0.013 | 0.449 ± 0.02 | 0.554 ± 0.027 | 0.419 ± 0.021 | 0.564 ± 0.023 | 0.392 ± 0.025 | 0.36 ± 0.0062 | 0.4772 ± 0.0041 |
| FMSAGVSWIFFV | 0.343 ± 0.047 | 0.579 ± 0.021 | 0.7146 ± 0.0024 | 0.601 ± 0.021 | 0.7503 ± 0.0043 | 0.105 ± 0.013 | 0.13 ± 0.012 | 0.129 ± 0.011 |
| LLFYSYFFFVLY | 0.265 ± 0.0037 | 0.172 ± 0.034 | 0.148 ± 0.0098 | 0.248 ± 0.021 | 0.341 ± 0.015 | 0.312 ± 0.023 | 0.213 ± 0.0032 | 0.286 ± 0.023 |
| SFLLVWCLLPEI | 0.415 ± 0.0064 | 0.364 ± 0.056 | 0.479 ± 0.096 | 0.309 ± 0.029 | 0.4729 ± 0.0046 | 0.2695 ± 0.0018 | 0.299 ± 0.035 | 0.451 ± 0.033 |
| EWAILSLGVMCV | 0.225 ± 0.014 | 0.0657 ± 0.03 | 0.118 ± 0.085 | 0.193 ± 0.013 | 0.2 ± 0.0075 | 0.158 ± 0.0049 | 0.184 ± 0.032 | 0.173 ± 0.011 |
| VYFRMGFMRVCV | 0.4611 ± 0.0042 | 0.487 ± 0.05 | 0.5 ± 0.037 | 0.416 ± 0.032 | 0.554 ± 0.0079 | 0.32 ± 0.013 | 0.344 ± 0.027 | 0.493 ± 0.015 |
| LVLFVVGGWVSL | 0.445 ± 0.043 | 0.35 ± 0.023 | 0.474 ± 0.082 | 0.316 ± 0.023 | 0.551 ± 0.014 | 0.279 ± 0.0085 | 0.311 ± 0.029 | 0.54 ± 0.076 |
| NLDRYYKKIKLI | 0.15 ± 0.025 | 0.338 ± 0.025 | 0.69 ± 0.013 | 0.689 ± 0.063 | 0.733 ± 0.019 | 0.052 ± 0.03 | 0.0742 ± 0.029 | 0.0913 ± 0.021 |
